Results as given in the RNAGym collection of RNA variant scans (doi:10.7554/elife.80360).

B1: Hairpin Ribozyme (parent)
chain: GUCCUCUUUCACGUGCGCGUGAAAGAGAGAAGUGAACCAGAGAAACACACGUUGUGGUAUAUUACCUGGUA

Variants of: B1
Experiment: self-cleavage, relative activity (ratio to wild type); higher = more cleavage; co-transcriptional

Variant	self-cleavage
U63A C66U	0.258
U63A G69U	0.17
U63A U67A	0.208
U63A U67C	0.14
U63A U67G	0.118
U63A U70G	0.151
U63C A64G	0.0805
U63C A71C	0.578
U63C C65G	0.117
U63C C66G	0.244
U63C C66U	0.165
U63C G68U	0.351
U63C U67A	0.21
U63C U67C	0.148
U63C U67G	0.111
U63C U70C	0.19
U63G A71C	0.565
U63G A71G	0.226
U63G C65A	0.0995
U63G C65G	0.243
U63G C66G	0.125
U63G G68A	0.281
U63G G68U	0.225
U63G G69A	0.102

Variant	self-cleavage
U63G G69U	0.169
U63G U67G	0.134
U63G U70A	0.0931
A64C A71U	0.243
A64C G69A	0.251
A64C G69U	0.234
A64C U67A	0.0615
A64C U70A	0.4
A64G C65A	0.139
A64G C65G	0.101
A64G C65U	0.215
A64G C66A	0.211
A64G C66U	0.109
A64G G69A	0.121
A64G G69C	0.142
A64G U70C	0.61
A64U A71C	0.494
A64U C65A	0.187
A64U C65U	0.194
A64U C66U	0.11
A64U G68U	0.23
A64U G69U	0.281
A64U U67C	0.213
A64U U70C	0.0932

Variant	self-cleavage
C65A	0.989
C65A A71G	0.93
C65A A71U	0.7
C65A C66U	0.508
C65A G68C	0.224
C65A G68U	0.292
C65A G69C	0.224
C65A G69U	0.235
C65A U67A	0.141
C65A U67C	0.228
C65A U70C	0.692
C65A U70G	0.562
C65G	0.273
C65G C66A	0.142
C65G G68A	0.254
C65G G68U	0.102
C65G G69C	0.219
C65G G69U	0.156
C65G U67A	0.0982
C65G U70A	0.197
C65U	0.323
C65U A71C	0.774
C65U A71G	0.467
C65U C66G	0.248

Variant	self-cleavage
C65U G69A	0.193
C65U G69C	0.0941
C65U U70A	0.379
C66A	0.218
C66A A71G	0.196
C66A U67A	0.234
C66A U70A	0.279
C66G	0.181
C66G A71C	0.35
C66G A71G	0.16
C66G A71U	0.168
C66G G68A	0.123
C66G G69A	0.185
C66G U67A	0.17
C66U	0.527
C66U G68C	0.202
C66U U67G	0.0789
C66U U70G	0.297
U67A A71G	0.196
U67A A71U	0.194
U67A G69C	0.258
U67C G68A	0.231
U67C G68U	0.208
U67C G69U	0.147

Variant	self-cleavage
U67C U70A	0.229
U67C U70C	0.279
U67C U70G	0.269
U67G A71U	0.918
U67G G68U	0.192
G68A A71C	0.348
G68A G69U	0.172
G68C A71U	0.126
G68C G69U	0.17
G68C U70A	0.143
G68U A71U	0.234
G68U U70G	0.252
G69A A71G	0.358
G69C U70A	0.437
G69C U70C	0.685
G69U A71C	1.38
G69U A71G	0.438
G69U A71U	0.362
G69U U70G	0.299
U70C A71G	1.85
U70G A71C	1.74
U70G A71U	1.26
